Measured values: PMC4125281, “Capsid Protein VP4 of Human Rhinovirus Induces Membrane Permeability by the Formation of a Size-Selective Multimeric Pore” (PLoS Pathogens, 2014)
*: point of attachment. Myristoyl = CCCCCCCCCCCCCC(=O)*

Legend:
[1] = target: the molecule itself; assay: cross-linking; VP4His incubated with liposomes (50 uM lipid) at 25 C for 1 hr, DSP 0.5 mM or 1 mM for 20 min at 25 C; non-reducing SDS-PAGE, western blot with antisera to VP4; cross-linking reversed with 50 mM DTT in some samples
[2] = target: the molecule itself; assay: SDS-PAGE without cross-linking (multimers that survive SDS); VP4His incubated with liposomes, no DSP (Fig. 5B lane 5); non-reducing SDS-PAGE, western blot with antisera to VP4

B1: recombinant myristoylated human rhinovirus 16 VP4 with six histidines at the C-terminus (VP4His) (natural protein)
chain: Myristoyl-MGAQVSRQNVGTHSTQNMVSNGSSLNYFNINYFKDAASSGASRLDFSQDPSKFTDPVKDVLEKGIPTLQ-{H2N-H2N-H2N-H2N-H2N-H2N}
notes: capsid protein VP4 of human rhinovirus 16 (HRV16), the cut product VP4 of the genome polyprotein; native VP4 about 7.4 kDa, VP4His about 8.2 kDa; Plasmid pETVP4His (pET23d); also called recombinant VP4; not shown: His6, C-terminal, kept
[1]
  stoichiometry N: 6
[2]
  stoichiometry N: 2
